Source: PMC5346689

Experiments:
Test in all cases: SEC; HiLoad 26/60 Superdex 75 prep grade column; buffer B (20 mM MES, 50 mM NaCl, 10 mM CaCl2, pH 7.0); oligomeric state of each purified S100A4 protein in solution
[1] = molecular target: recombinant wild-type S100A4 (UniProt P26447)
[2] = molecular target: S100A4 N-terminal Ca2+-binding site mutant E23A/D25A (UniProt P26447)
[3] = molecular target: S100A4 C-terminal Ca2+ binding site mutant N65I/D67A (UniProt P26447)

Q: How did the stoichiometry N [1] turn out when “recombinant wild-type S100A4 (from UniProt P26447 1-101) (natural protein)” was run?
A: The stoichiometry N was 2.

Q: Which stoichiometry N [2] does the source give for “S100A4 N-terminal Ca2+-binding site mutant E23A/D25A (from UniProt P26447 1-101) (natural protein)” here?
A: Its stoichiometry N is 2.

Q: For “S100A4 C-terminal Ca2+ binding site mutant N65I/D67A (from UniProt P26447 1-101) (natural protein)”, which stoichiometry N [3] is on record?
A: The stoichiometry N was 2.
